Test results taken from the supplement of paper PMC11780869.

Test system: Bacillus subtilis
Assay: cleaved RNA product abundance (RNA/gDNA barcode ratio) relative to median wild-type variant (ratio to wild type); higher = more accumulation of the downstream cleavage product
Procedure: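 MPRA in B. subtilis. Mutagenized RNase Y cleavage-site regions (9% mutation rate) were inserted into a barcoded reporter mRNA (truncated aprE or tetM). Cells were grown in LB at 37°C to OD600 0.3. The cleaved RNA isoform was gel-purified and its barcodes counted; the RNA:gDNA barcode ratio was normalised to the median wild-type variant, and the median over barcodes is reported per variant. The printed sequence is the variable window only; the reporter flanks are not printed.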

[1] = experiment (reporter, strain, medium): exp 2b: truncated aprE reporter, strain BJT200, cleavage site: cggR-gapA (positions -7 to +36 mutated)
[2] = experiment (reporter, strain, medium): exp 4a: truncated aprE reporter, strain BJT201 with 2% xylose (RNase J1 expressed), cleavage site: cggR-gapA (positions -7 to +36 mutated)
[3] = experiment (reporter, strain, medium): exp 8a: truncated aprE reporter, strain BJT201 with 2% xylose (RNase J1 expressed), cleavage site: glnRA (positions -5 to +31 mutated)
[4] = experiment (reporter, strain, medium): exp 6: tetM reporter, strain 168, cleavage site: cggR-gapA (positions -7 to +36 mutated)

Sequence	cleaved RNA product abundance [1]	cleaved RNA product abundance [2]	cleaved RNA product abundance [3]	other results
ACAGACGAAGGAGCCGCAAAGAAGTTATTAAGGGAAGAATAATACCTCAATATAAATATCTCTCACTTATTTAAA	0.101	0.156	–	–
ACAGACGAAGGAGCCGCAAAGAAGTTATTAAGGGATGAACAATCACTCAATATAAATATCTCTCACTTATTTAAA	–	0.105	–	–
ACAGACGAAGGAGCCGCAAAGAAGTTATTAAGGCATGAATAATCCCTCAATATAAATATCTCTCACTATTTAAAG	–	0.146	–	–
ACAGACGAAGGAGCCGCAAAGAAGTTATTAAGGGATGAATACTGCCTCAATATAAATATCTCTCACTTATTTAAA	0.112	–	–	–
CGACATGTCCCGCTTCTTTCATTAATCCGTTAGCAACTGTATTGCTATATACATTTACGTTTTAAGAGGAGGAAT	–	–	1.16	–
ACAGACGAAGGAGCCGCAAAGAAGTTATTAAGGAATGAATAATCCCTCAAGATAAATATCTCTCACTTATTTAAA	–	0.0834	–	–
CGACATGTCCCGCTTCTTTCATTAATCCGTTAGCAACTTTTTTGCTATATACATTTACTTTTTAAGAGGAGGAAT	–	–	1.37	–
ACAGACGAAGGAGCCGCAAAGAAGTTATTAAGAGAAGAATAATCCCTCAATATAAATATCTCTCACTTATTTAAA	0.0791	0.101	–	cleaved RNA product abundance [4]: 0.107
ACAGACGAAGGAGCCGCAAAGAAGTTATTAATGGCTGAATAATCCCTCAATATAAATATCTCTCACTTATTTAAA	0.11	0.0644	–	–
ACAGACGAAGGAGCCGCAAAGAAGTTATTAAGGGAACAATAATCCCTCAATATAAATATCTCTCACTTATTTAAA	–	0.79	–	–
CGACATGTCCCGCTTCTTTCATTAATCCGTTAGCAACTGTTTTTCTATATACATTTACGTTTTAAGAGGAGGAAT	–	–	0.305	–
CGACATGTCCCGCTTCTTTCATTACTCCGTTAGCAACTGTTTTGCTGTATACATTTACCTTTTAAGAGGAGGAAT	–	–	0.372	–
ACAGACGAAGGAGCCGCAAAGAAGTTATTAAGGGATGATTAATACCTCAATATAAATATCTCTCACTTATTTAAA	–	0.134	–	–
ACAGACGAAGGAGCCGCAAAGAAGTTATTAAGGGATGAATATTCCCTCAATATAAATATCTCTCACTTATTTAAA	0.675	0.699	–	cleaved RNA product abundance [4]: 0.84
CGACATGTCCCGCTTCTTTCATTAATCCATCAGCAACTGTTTTGCTATATACATTTACCTTTTAAGAGGAGGAAT	–	–	0.41	–
CGACATGTCCCGCTTCTTTCATTAATCCGTTAGCAACTGTTTTGCAATATACATTTACCATTTAAGAGGAGGAAT	–	–	0.562	–
CGACATGTCCCGCTTCTTTCATTAATCCGTTACCAACTGTTTTGCCATATACATTTACCTTTTAAGAGGAGGAAT	–	–	0.145	–
ACAGACGAAGGAGCCGCAAAGAAGATATTAAGGGATTAATAATCCCTCAATATAAATATCTCTCACTTATTTAAA	–	0.608	–	–
ACAGACGAAGGAGCCGCAAAGAAGTTATTAAGGCGTGAATAATCCCTCAATATAAATATCTCTCACTTATTTAAA	0.097	0.116	–	–
ACAGACGAAGGAGCCGCAAAGAAGTTATTAAGGGATAAAAAATCCCTCAATATAAATATCTCTCACTTATTTAAA	–	0.625	–	–
CGACATGTCCCGCTTCTTTCATTAATCCGTTAGCCACTGTTTTGCTATATACATTTACCTTTTAAGAGGAGGAAT	–	–	0.478	–
ACAGACGAAGGAGCCGCAAAGCAGTTATTAAGGAATGAATAATCCCTCAATATAAATATCTCTCACTTATTTAAA	–	0.0974	–	–
ACAGACGAAGGAGCCGCAAAGAAGTTATTAAGGGATGAATAATCACTCAATATAGATATCTCTCACTTATTTAAA	0.143	0.116	–	–

Sequence	cleaved RNA product abundance [1]	cleaved RNA product abundance [2]	cleaved RNA product abundance [3]	other results
ACAGACGAAGGAGCCGCAAAGAAGTTATTAAGGAATGAATAATCCCGCAATATAAATATCTCTCACTTATTTAAA	–	0.0576	–	–
ACAGACGAAGGAGCCGCAAAGAAGTTATTGAGGCATGAATAATCCCTCAATATAAATATCTCTCACTTATTTAAA	0.0906	0.0717	–	–
ACAGACGAAGGAGCCGCAAAGAAGTTTTTAAGGGATGAGTAATCCCTCAATATAAATATCTCTCACTTATTTAAA	–	0.235	–	–
ACAGACGAAGGAGCCGCAAAGAAGTTACTAAGTGATGAATAATCCCTCAATATAAATATCTCTCACTTATTTAAA	0.0989	0.102	–	–
ACAGACGAAGGAGCCGCAAAGAAGTTATTAAGGGATGAATAATCCCACCATATAAATATCTCTCACTTATTTAAA	0.16	0.228	–	–
ACAGACGAAGGAGCCGCAAAGAAGTTAATAAGGGATGAATAATTCCTCAATATAAATATCTCTCACTTATTTAAA	0.178	0.198	–	–
CGACATGTCCCGCTTCTTTCATTAATCCGTTATCAACTGTTTGGCTATATACATTTACCTTTTAAGAGGAGGAAT	–	–	0.231	–
ACAGACGAAGGAGCCGCAAAGAAGTTATTAAGGCATGAATAATCCCTCAATATAAATAACTCTCACTTATTTAAA	0.0904	0.111	–	–
ACAGACGAAGGAGCCGCAAAGAATTTATTAAGGGATGAATAATCCCTCAATAGAAATATCTCTCACTTATTTAAA	–	0.0925	–	–
ACAGACGAAGGAGCCGCAAAGAATTTATTAAGGGATGAATAATCCCTCAATATAAGTATCTCTCACTTATTTAAA	–	0.216	–	–
CGACATGTCCCGCTTCTTTCATTAATCCGTTATCAACTGTTTTGCTATAGACATTTACCTTTTAAGAGGAGGAAT	–	–	0.206	–
ACAGACGAAGGAGCCGCAAAGAAGTTATGAAGCGATGAATAATCCCTCAATATAAATATCTCTCACTTATTTAAA	–	0.0897	–	–
ACAGACGAAGGAGCCGCAAAGAATTTATTAAGGGATGAATAATCCCTCAATATTAATATCTCTCACTTATTTAAA	0.109	–	–	–
CGACATGTCCCGCTTCTTTCATTAATCCCTTAGAAACTGTTTTGCTATATACATTTACCTTTTAAGAGGAGGAAT	–	–	0.173	–
ACAGACGAAGGAGCCGCAAAAAAGTTATTAAGGGACGAATAATCCCTCAATATAAATATCTCTCACTTATTTAAA	0.676	0.54	–	–
ACAGACGAAGGAGCCGCAAAAAAGTTATGAAGGGATGAATAATCCCTCAATATAAATATCTCTCACTTATTTAAA	–	0.453	–	–
CGACATGTCCCGCTTCTTTCATTAATCCGTTACCTACTGTTTTGCTATATACATTTACCTTTTAAGAGGAGGAAT	–	–	0.443	–
CGACATGTCCCGCTTCTTTCATTAATTCGTTAGCAACTGATTTGCTATATACATTTACCTTTTAAGAGGAGGAAT	–	–	0.876	–
ACAGACGAAGGAGCCGCAAAGAAGTTATTAAAGGATGAATAATCCCTCCATATAAATATCTCTCACTTATTTAAA	–	0.0862	–	–
ACAGACGAAGGAGCCGCAAAGAAGTTATTAAGAGATGAATAATCCCTCAATATAAATACCTCTCACTTATTTAAA	–	0.126	–	–
CGACATGTCCCGCTTCTTTCATTAATCCGTTATCAACTGTTTTGCTATATACATTTGCCTTTTAAGAGGAGGAAT	–	–	0.223	–
ACAGACGAAGGAGCCGCAAAGAAGTTATTAAGGGATGAATAATCCTTCAATATAAATTTCTCTCACTTATTTAAA	–	0.346	–	–
CGACATGTCCCGCTTCTTTCATTAATCCCTTAGCAACTGATTTGCTATATACATTTACCTTTTAAGAGGAGGAAT	–	–	0.25	–
